Test results from patent US20220227830A1, “QD DOSING OF GIP RECEPTOR AGONIST PEPTIDE COMPOUNDS AND USES THEREOF” (Takeda Pharmaceutical Company Limited, priority 2020, published 2022).
Starred links: 1 amine or outer side, 2 acyl side, 3 side chain; linkers in the order of their positions; H or OH if unused. Non-standard residues stand in square brackets, D forms with d. Groups on a side chain read outwards from the residue. No end group written: not given here. *: point of attachment. C16 diacid = O=C(O)CCCCCCCCCCCCCCC(=O)*; C15 diacid = O=C(O)CCCCCCCCCCCCCC(=O)*; γGlu = O=C(O)[C@H](CCC(=O)[*:2])N[*:1]; NMeY = CN[C@@H](Cc1ccc(O)cc1)C(=O)O; AEEA = NCCOCCOCC(=O)O; Aib = CC(C)(N)C(=O)O

B1: Compound 119 (peptide)
peptide: [NMeY][Aib]EGTFISDYSIALDR[Aib]K([AEEA-AEEA-γGlu-γGlu-C16 diacid])Q[Aib]NFVNWLLAQSPSSGAPPPS-NH2
B2: Compound 23 (peptide)
peptide: [NMeY][Aib]EGTFISDYSIAK([AEEA-γGlu-γGlu-γGlu-C15 diacid])DR[Aib]AQ[Aib]NFVNWLLAQK-NH2
modifications: N-terminus assumed
SMILES: CC[C@H](C)[C@H](NC(=O)[C@H](CO)NC(=O)[C@H](Cc1ccc(O)cc1)NC(=O)[C@H](CC(=O)O)NC(=O)[C@H](CO)NC(=O)[C@@H](NC(=O)[C@H](Cc1ccccc1)NC(=O)[C@@H](NC(=O)CNC(=O)[C@H](CCC(=O)O)NC(=O)C(C)(C)NC(=O)[C@H](Cc1ccc(O)cc1)NC)[C@@H](C)O)[C@@H](C)CC)C(=O)N[C@@H](C)C(=O)N[C@@H](CCCCNC(=O)COCCOCCNC(=O)CC[C@H](NC(=O)CC[C@H](NC(=O)CC[C@H](NC(=O)CCCCCCCCCCCCCC(=O)O)C(=O)O)C(=O)O)C(=O)O)C(=O)N[C@@H](CC(=O)O)C(=O)N[C@@H](CCCNC(=N)N)C(=O)NC(C)(C)C(=O)N[C@@H](C)C(=O)N[C@@H](CCC(N)=O)C(=O)NC(C)(C)C(=O)N[C@@H](CC(N)=O)C(=O)N[C@@H](Cc1ccccc1)C(=O)N[C@H](C(=O)N[C@@H](CC(N)=O)C(=O)N[C@@H](Cc1c[nH]c2ccccc12)C(=O)N[C@@H](CC(C)C)C(=O)N[C@@H](CC(C)C)C(=O)N[C@@H](C)C(=O)N[C@@H](CCC(N)=O)C(=O)N[C@@H](CCCCN)C(N)=O)C(C)C
B3: Compound 21 (peptide)
peptide: [NMeY][Aib]EGTFISDYSI[Aib]LDR[Aib]AQ[Aib]NFVNWLLAQK([AEEA-AEEA-γGlu-γGlu-C15 diacid])PSSGAPPPS-NH2
modifications: N-terminus assumed
SMILES: CC[C@H](C)[C@H](NC(=O)[C@H](Cc1ccccc1)NC(=O)[C@@H](NC(=O)CNC(=O)[C@H](CCC(=O)O)NC(=O)C(C)(C)NC(=O)[C@H](Cc1ccc(O)cc1)NC)[C@@H](C)O)C(=O)N[C@@H](CO)C(=O)N[C@@H](CC(=O)O)C(=O)N[C@@H](Cc1ccc(O)cc1)C(=O)N[C@@H](CO)C(=O)N[C@H](C(=O)NC(C)(C)C(=O)N[C@@H](CC(C)C)C(=O)N[C@@H](CC(=O)O)C(=O)N[C@@H](CCCNC(=N)N)C(=O)NC(C)(C)C(=O)N[C@@H](C)C(=O)N[C@@H](CCC(N)=O)C(=O)NC(C)(C)C(=O)N[C@@H](CC(N)=O)C(=O)N[C@@H](Cc1ccccc1)C(=O)N[C@H](C(=O)N[C@@H](CC(N)=O)C(=O)N[C@@H](Cc1c[nH]c2ccccc12)C(=O)N[C@@H](CC(C)C)C(=O)N[C@@H](CC(C)C)C(=O)N[C@@H](C)C(=O)N[C@@H](CCC(N)=O)C(=O)N[C@@H](CCCCNC(=O)COCCOCCNC(=O)COCCOCCNC(=O)CC[C@H](NC(=O)CC[C@H](NC(=O)CCCCCCCCCCCCCC(=O)O)C(=O)O)C(=O)O)C(=O)N1CCC[C@H]1C(=O)N[C@@H](CO)C(=O)N[C@@H](CO)C(=O)NCC(=O)N[C@@H](C)C(=O)N1CCC[C@H]1C(=O)N1CCC[C@H]1C(=O)N1CCC[C@H]1C(=O)N[C@@H](CO)C(N)=O)C(C)C)[C@@H](C)CC
B4: Compound 16 (peptide)
peptide: [NMeY][Aib]EGTFISDYSIAK([AEEA-AEEA-γGlu-γGlu-C15 diacid])DR[Aib]AQ[Aib]NFVNWLLAQS
B5: Compound 20 (peptide)
peptide: [NMeY][Aib]EGTFISDYSI[Aib]LDRK([AEEA-AEEA-γGlu-γGlu-C15 diacid])AQ[Aib]NFVNWLLAQRPSSGAPPPS-NH2
modifications: not fully specified (N-terminus)

Experiments:
[1] = target: dog plasma proteins; test: plasma protein binding, ultracentrifugation of spiked plasma, LC-MS/MS
[2] = target: human plasma proteins; test: as above
[3] = target: human plasma proteins; test: plasma protein binding; spiked human plasma, ultracentrifugation, LC-MS/MS

Binder | Dog PPB (Fu,plasma), fraction unbound (fraction unbound) [1] | Human PPB (Fu,plasma), fraction unbound (fraction unbound) [2] | percent of unbound drug in plasma [3] [%] | proportion of the drug being bound [3] [%]
B1 | 0.0105 | 0.0185 |  | 
B2 |  | 0.0734 | 7.3 | 92.7
B3 | 0.037 | 0.0414 |  | 
B4 | 0.0151 | 0.0441 |  | 
B5 | 0.0021 | 0.0013 | 0.1 | 
